Reference: the DeepSol protein solubility set

assay: soluble on expression in E. coli; label from the status in PepcDB or PDB records

| Sequence | soluble on expression in E. coli |
| --- | --- |
| MGSDKIHHHHHHMSDIPYQTIDTRALHRFAQPDRIAPAMYHDPALFEAELDRIFYRTWIWVAHDSELPNPGDFITTTIGRQPVIVVRDKTGEINVLQNRCRHRGATVCESHKGNAKGFTCPYHSWSYALDGTLRALPYGDGYEGVCEKGDLPLVKLRVGVYQGLIFASFNDDIEPLEDFLGGAKPWIDLFMKQGAGYPIKANGEHKFKFKGNWKIQLENTTDLYHFPVVHKSWMKSIDDETAAAITSFMTSEHAFCRALGNGHSLAVLMPELIDLDEDDGAPLPERFAPLAATLAERHAPDEVRRIVRSLLGVGFNLNLFPNLALSMAFFRVLRPISANETEIRHVALAMDGGPDEANRERLRIHEHFQGPFGFGSPDDAEAWERVQRGAHAGPDVPILVNRGLNRETTAANGEKTAHATDETGMREAYQQWRKLMEQA | not soluble |
| MPRYIVRPFHLLNLPTVVISEVLNHLKNIDICILRTTSRKIRTIGKLSARRKQTYLVGHRRLDLTINARFGKFKVESGARDGTVALYAGYDINRVLDITSDFFDYLDIYIYLYIIDNHSDKDAKKLVEVIVTKGIYVHYLRFDGEQISHELFREMLKCDVNELRIHLRTQHTVELSDIDLMVSCKCVALTRITIPSDYLNVLLKKWQANRNLTFFSASGMALTLDKSIILEGTNSEQGSEEYNFYIKCNNRKTALLKILHNSFRLGNVY | not soluble |
| MNHAQLRRVTAESFAHYRHGLAQLLFETVHGGASVGFMADLDMQQAYAWCDGLKADIAAGSLLLWVVAEDDNVLASAQLSLCQKPNGLNRAEVQKLMVLPSARGRGLGRQLMDEVEQVAVKHKRGLLHLDTEAGSVAEAFYSALAYTRVGELPGYCATPDGRLHPTAIYFKTLGQPT | soluble |
| MRPRRSLLSVPAINIRALEKIRELDCDGVILDLEDSVAPDMKGKARENLEKLFSGPPFDGRETIIRINPLSTPDGKADLQLVLSCRPDAVLLPKVEQPSDIHDVADFLAEADAPEHLKIWAMIETPLGVLNAASIADAAHTPNARLAAFVIGLNDLRKETHVPRLPGRTYLVPWMMQVILAARAYGLDVIDSVSNDFRDIEAFEAECEQGRAMGFDGKMLIHPAQIEAANRHFGPDEATLAEARAIIAAFAKPESVELNIINMNGQMIERLHVGQAERLVAMADIIAQRKAKKT | not soluble |
| MSLANLNIFGQEVGADVEGWTTRAFPEKVVLKGNTCRLEPLDRERHGSELFSAYSEAGQKLWTYLPAGPFTNLEEYLEFIKELNETKDTVPFAIINKETERAVGTLCLIRIDEANGSLEVGYVVFSPELQKTIIATEAQFLLMKYVFDDLQYRRYEWKCDSLNGPSRRAAMRLGFKYEGTFRQVVVYKGRTRDTQWFSIIDKEWLRIRKTFEEWLDKTNFENGKQKRGIAAIRESLSNEGHHHHHH | soluble |
| MGSDKIHHHHHHMMNDRDERWDRIAGKLDTLLDRFDRFLDGHIPPPPPDGRLFERHLAFRWRRTGEGGAFLPVEHPHLPDLDDLMGIDLVRDELVRNTGQFVVGYPANNVLLWGERGTGKSTCVKGLLRRFSEEGLRLVEVLRDDLCTLPAIIAPLRKMPQRFILFCDDLSFGEGEGGYRELKVLLEGGIEERPSNILFYATSNRRHLLPERMEDNLGGEIHPEEAVSEKLSLADRFGLNLSFYSFDQDTYLAIVARYAEKFSLPMGGEALRREALQWAIFKGSRSGRSARQFVDDLAGRLRVALPAEK | not soluble |
| MSLSTERTERVRPQRVEQNLPPLSWGGSGVQTAYWVQEAVQPGDSLADVLARSGMARDEIARITEKYGGEADLRHLRADQSVHVLVGGDGGAREVQFFTDEDGERNLVALEKKGGIWRRSASEADMKVLPTLRSVVVKTSARGSLARAEVPVEIRESLSGIFAGRFSLDGLKEGDAVRLMYDSLYFHGQQVAAGDILAAEVVKGGTRHQAFYYRSDKEGGGGGNYYDEDGKVLQEKGGFNIEPLVYTRISSPFGYRMHPILHTWRLHTGIDYAAPQGTPVRASADGVITFKGRKGGYGNAVMIRHANGVETLYAHLSAFSQAEGNVRGGEVIGFVGSTGRSTGPHLHYEARINGQPVNPVSVALPTPELTQADKAAFAAQKQKADALLARLRGIPVTVSQSDEGHHHHHH | soluble |
| MSHAIQIREAHFPGRAPIDAYGNGGFRFADMSHRGSIICIPSGIYGIDMTGPVPTQEDISRVLEESDQIEVLLIGTGVELLRLPEELRVLLWEKRISSDTMSTGAAVRTFNVLLAEDRAVAALLFAVE | soluble |
| SNAMTQSPIFLTPVFKEKIWGGTALRDRFGYSIPSESTGECWAISAHPKGPSTVANGPYKGKTLIELWEEHREVFGGVEGDRFPLLTKLLDVKEDTSIKVHPDDYYAGENEEGELGKTECWYIIDCKENAEIIYGHTARSKTELVTMINSGDWEGLLRRIKIKPGDFYYVPSGTLHALCKGALVLETQQNSDATYRVYDYDRLDSNGSPRELHFAKAVNAATVPHVDGYIDESTESRKGITIKTFVQGEYFSVYKWDINGEAEMAQDESFLICSVIEGSGLLKYEDKTCPLKKGDHFILPAQMPDFTIKGTCTLIVSHI | soluble |
| MGSDKIHHHHHHMGDRLYFERFIWFDSQIRNGCYPNASALARKFEFDIKTAQRSIEYFRDRLGAPLDYDASRRGYRYYDPNYQLPVTHLSESELVALLASRKLLTDAAAGPLGDELEKVSNRLGALLSNGLKGKINPERAFSFRWNGMAASDPVIFEQAVSALLSCRLLTFCYYSPLAGACTARTVEPHHMINYMGAWHLIAWCRLRNDWRDFHLARVSLAHLEEEIFSPRDETTWRPCLDETFGIFQNRERFDVTIRFSADRARWVREELWHQDQSTRDLDTGEVELTIPVSHEAEILMEVLKHGSHAEVMEPIWLRDRIREEIGKMQKKY | not soluble |
| ATHTAQTQTHLNFTQIKTVDELNQALVEAKGKPVMLDLYADWCVACKEFEKYTFSDPQVQKALADTVLLQANVTANDAQDVALLKHLNVLGLPTILFFDGQGQEHPQARVTGFMDAETFSAHLRDRQPHHHHHH | soluble |
| MNRILLYVHFNKYNKISAHVYYQLEQMRSLFSKIVFISNSKVSHEDLKRLKNHCLIDEFLQRKNKGFDFSAWHDGLITMGFDKLEEFDSLTIMNDTCFGPIWEMAPYFENFEEKKAVDFWGITNNRGTKAFKEHVQSYFMTFKNQVIQNKVFQQFWQSIIEYENVQEVIQHYETQLTSILLNEGFSYQTVFDTRKAESSFMPHPDFSYYNPTAILKHHVPFIKVKAIDANQHIAPYLLNLIRETTNYPIDLIVSHMSQISLPDAKYLLSQKYLNCQRLAKQTCQKVAVHLHVFYVDLLDEFLTAFEDWNFHYDLFITTDSDIKRKEIKEILQRKGKTADIRVTGNRGRDIYPMLLLKDKLSQYDYIGHFHTKKSKEADFWAGESWRKELIDMLVKPADSILSAFETDDIGIIIADIPSFFRFNKIVNAWNEHLIAQEMMSLWRKMDVKKQIDFQAMDTFVMSYGTFVWFKYDALKSLFDLELTQNDIPSEPLPQNSILHAIERLLVYIAWGNSYDFRILEHHHHHH | not soluble |
| MITLWGRNNSTNVKKVLWTLEELELPYDQILAGGKFGVNQDADYLAMNPNGLVPLLKDDETDLLLWESNAIVRYLAAQYGQNRLWVDNPARRAEGEKWMDWANQTLSPAHRVILMGLVRTPPEKRDQAAIEAGIEKCDSLFALLDDALAHQPWFSGDNFGTGDIAIAPFVYNLLNVGLKWTPRPNLERWYQQLTERPAFRKVVMIPVT | not soluble |
| MDGVVIKNTGSQYLVRCTDGTELYCMAKGNLRLKGIRSTNPVTVGDRVEIVPASQDGQPAYIKRIHPRRNYIIRRASNLSKESHILGANLDAAVLVCTINDPVTTTVFIDRFLATAEAYRVPVILVFNKIDCYTQEDRLQLDRLSAVYTAIGYPCCHVSAITGEGLPDLKSLLDGKLTLLAGHSGVGKSSLINALIPHADLRTGAISQAHHTGMHTTTFSQMIDFPDLSPGSALIDTPGIKGFGTLEMGEYEVSHYFPEIFAASKGCRFGNCTHTHEPGCAVLEALRRGEIAESRYISYLSILEDENAERYRPEY | not soluble |
| MAQEIERKFLVSGDFKSFAFAQSRIMQGYICSARGRTVRVRIRDDKGYLTIKGASNESGTSRYEWEKELPLSEAEELMKLCEPGMIDKTRYLVRSGNHIFEVDEFYGENEGLIVAEVELGTEDEAFVKPGFIGEEVTGDVRYYNSHLMKKPYKMW | not soluble |
| MSLTDNSKIRVVVGMSGGVDSSVTALLLKEQGYDVIGVFMKNWDDTDEFGVCTATEDYKDVAAVADKIGIPYYSVNFEKEYWDRVFEYFLAEYRAGRTPNPDVMCNKEIKFKAFLDYAMTLGADYVATGHYAQVKRDENGTVHMLRGADNGKDQTYFLSQLSQEQLQKTLFPLGHLQKSEVREIAERAGLATAKKKDSTGICFIGEKNFKQFLSQYLPAQKGRMMTIDGRDMGEHAGLMYYTIGQRGGLGIGGQHGGDNQPWFVVGKDLSQNILYVGQGFYHEALMSNSLDASVIHFTREMPEEFTFECTAKFRYRQPDSHVAVHVRGDKAEVVFAEPQRAITPGQAVVFYDGKECLGGGMIDMAYKNGQPCQYIEGHHHHHH | soluble |
| MVLTDEQRQAIAKKREEAIRRAAAYREREMQAAANATASTSSAAPPAPPKPVIPVMFSQNRQNFQPMKPTMNNSTKQSTINNYIKQVQKPEPTSLIKPTIGVKLKLDIGDRIKIEFYPFHSAVIDLIKQVPSRNYDPAKRSWTVASSDHITISNILKNATAVKVELEPLPQNIIGLTNFKPKAAPSDLNTVMDPSLIERLFPYQKEGVIFALERDGRILLADEMGLGKSVQALTIARYYKADWPLLIVCPASVKGAWKKQLNTFFPIIHRIFIVDKSSDPLPDVCTSNTVAIMSYEQMVLKHDILKKEKYRTIIFDESHMLKDGKARRTKVATDLSKVALHVILLSGTPALSRPSELFTQIRLIDHKLFTNFHEFAIRYCDGKQGRFCFEAKGCTNSEELAAIMFKRLMIRRLKADVLKDLPEKRREVVYVSGPTIDARMDDLQKARADYEKVNSMERKHESLLEFYSLTGIVKAAAVCEHILENYFYPDAPPRKVLIFAHHQIVLDTIQVEVNKRKLGSIRIDGKTPSHRRTALCDSFQTDDNIRVAVLSITAAGVGITLTAASVVVFAEIHFNPGYLVQAEDRAHRVGQKDSVFVQYLIAKKTADDVMWNMVQQKLDVLGQVSLSSDTFRTADKMHLRFNDAAQPGIAEYLKKTPDTTIDEWEDPVEEKEDDDLEIICDSPAPKRIKN | not soluble |
| MGSDKIHHHHHHMALLEVKNLKKYFPIIKRGFRRKVVGYLKAVDGISFHIEEGETLGLVGESGCGKTTTAKLIMRGIEPTEGEIVLNMDGEKVDITKLSEKELREKGVRRFLQMIFQDPYSSLNPRMTVRDIIAEPLVVNGVIKGKEEIDAIVSDLLRAVGLRPEYMQRYPHAFSGGQRQRIAIARAIALKPKLVLCDEPTSALDVSVQAQIINLLKDLQKEYNLTYLFISHDLGVVEHITNRVAVMYVGRIVELAETEELFSSPKHPYTEALLSAVPKPDPKRKRKKAQLTGEVPDPSNPPSGCYFHPRCPYAKAICKEVYPDLRNVGTDQNPHLVACHFADSLKLEGVGTM | not soluble |
| MVKKVKGRRYEGSIEQRSKNSWRMRVTVGYDYKGTPIRADRTTRTKNERERERELRNFITELEQNGYTAPARMTFKAFVENEYMPKHAQNNLEVKTWTEYYKSIVARAYPAFGGVQMDKITTLHIVNLVAKLQKPGARLDVKPTDSDEKKNKPLSPRSIRNIYFAINSVFETAVEWKVIPINPAEGVRLPKTTKRPPTIYTPAEIELLNAALVKEPLRLQVMIYIALISGCREAELAALEVKHVNLIEDELTFEQTLVAKAGEGLLLKESTKNDVAGIVSIPAWLTNLIETYISNEVLDLKTEGKWANHKFLFADMEGKPIRPDSIYQRWKRFLERHNLPVIRFHDLRHTSATLLLNKGRDIKIIQERLRHKSSVTTSNIYAHVLKDTHKDAASDFENPF | not soluble |
